According to patent US20160083449A1 (FRED HUTCHINSON CANCER RESEARCH CENTER, published 2016):

T1: Wilms tumor protein 1 (WT-1) peptide on HLA-A*02:01 (human)
T1 peptide: RMFPNAPYL


Legend:
[1] = biological target: T2, WT-1^126-134 peptide/MHC tetramer (…, SEQ ID NO.:16, with HLA-A2), PE-conjugated (human); assay: flow cytometry of transduced PBMCs; share of tetramer-positive cells within the transduced population (Vβ+ cells minus the endogenous Vβ+ cells of the untransduced control); drawn table
T2 construct: Tetramer reagent used for staining of T cells; the source and the construct of the HLA-A2 monomers are not described; also called WT1 tetramers; WT-1 tetramer

[2] = biological target: T1, Wilms tumor protein 1 (WT-1) peptide on …; assay: Kd or kinetics

| % transduced Vβ+ tet+ [1] | binding result [2] | Binder |
| --- | --- | --- |
| 51.2% |  | TCRP20, WT-1^126-134-specific TCR of T cell clone P20 (TCR, V domains shown, Engineered cysteine pair (alpha T179C, beta S185C, precursor numbering) gives an extra interchain disulfide., On the T cell clone) V domain 1: QKEVEQNSGPLSVPEGAIASLNCTYSDRGSQSFFWYRQYSGKSPELIMSIYSNGDKEDGRFTAQLNKASQYVSLLIRDSQPSDSATYLCAVLEGQKLLFARGTMLKVDL V domain 2: DVKVTQSSRYLVKRTGEKVFLECVQDMDHENMFWYRQDPGLGLRLIYFSYDVKMKEKGDIPEGYSVSREKKERFSLILESASTNQTSMYLCATSHQPQHFGDGTRLSILE |
|  | recognises | P20 TCR (TCRP20) (TCR, V domains shown) Valpha: QKEVEQNSGPLSVPEGAIASLNCTYSDRGSQSFFWYRQYSGKSPELIMSIYSNGDKEDGRFTAQLNKASQYVSLLIRDSQPSDSATYLCAVLEGQKLLFARGTMLKVDL Vbeta: DVKVTQSSRYLVKRTGEKVFLECVQDMDHENMFWYRQDPGLGLRLIYFSYDVKMKEKGDIPEGYSVSREKKERFSLILESASTNQTSMYLCATSHQPQHFGDGTRLSIL |
|  | recognises | P1 TCR (TCRP1) (TCR, V domains shown) Valpha: AQKVTQAQTEISVVEKEDVTLDCVYETRDTTYYLFWYKQPPSGELVFLIRRNSFDEQNEISGRYSWNFQKSTSSFNFTITASQVVDSAVYFCALSEAHRDSNYQLIWGAGTKLIIKP Vbeta: ETGVTQTPRHLVMGMTNKKSLKCEQHLGHNAMYWYKQSAKKPLELMFVYNFKEQTENNSVPSRFSPECPNSSHLFLHLHTLQPEDSALYLCASSQDEQFLYNEQFFGPGTRLTVL |
